Experimental findings from publication doi:10.1101/2022.07.10.499282 are described below.

One may read the stoichiometry N as the number of molecules, sites or subunits per partner or assembly.

For the test, the target named is CXCL4 (platelet factor 4, PF4) (human). Kind of test: AUC.

As to “CXCL4 (platelet factor 4, PF4) (natural protein)”, the stoichiometry N came out at 4.
